Laboratory results: patent publication US20190062438A1 (CSL, published 2019)
Several values for one entry are separate records, joined by “and”; a condition that tells them apart may be missing. Identical values can stand only once.

How the values were obtained:
[1] = biological target: shCD131 alanine mutants of Ser102, Val104 and Arg364; test: SPR, Fab over captured mutant
[2] = biological target: T1, shCD131 M340A (human, UniProt P32927 17-438); test: SPR, steady state, Fab over captured mutant
T1 construct: C-terminal 6xHis
T1 sequence: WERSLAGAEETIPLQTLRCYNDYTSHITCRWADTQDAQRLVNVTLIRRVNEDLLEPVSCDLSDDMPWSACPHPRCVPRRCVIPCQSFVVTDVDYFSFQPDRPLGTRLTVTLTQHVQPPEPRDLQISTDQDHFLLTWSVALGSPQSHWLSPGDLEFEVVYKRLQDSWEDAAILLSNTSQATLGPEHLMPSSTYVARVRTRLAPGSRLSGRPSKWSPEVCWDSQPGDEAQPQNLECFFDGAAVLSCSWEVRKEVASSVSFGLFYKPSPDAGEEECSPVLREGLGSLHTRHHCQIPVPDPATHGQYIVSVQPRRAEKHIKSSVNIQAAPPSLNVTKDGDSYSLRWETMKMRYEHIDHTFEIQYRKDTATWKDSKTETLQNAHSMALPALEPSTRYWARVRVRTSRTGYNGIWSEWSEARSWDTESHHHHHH
Procedure: (§1) For some analysis purified Fab was injected over each flow cell for 3 minutes and dissociation was monitored for a further 10 minutes. Regeneration of the surface was performed after each cycle with a 40 second injection of 25 mM glycine, pH 2.0. The analysis was performed with Fabs at several concentrations between 100 and 0.31 nM, with each concentration analyzed twice and in random order. The analysis was performed at a flow rate of 30 μl/min in HBS-EP buffer (10 mM Hepes, 150 mM NaCl, 3 mM EDTA, 0.005% Tween 20, pH 7.4) at 37° C. Responses from spots 2 and 4 of each flow cell, (in which shβc was not captured, but otherwise treated identically), were subtracted from those of spots 1 and 5 respectively to produce reference subtracted data. Reference subtracted responses from a blank injection comprising buffer alone were subtracted from the resultant sensorgrams to produce double referenced data suitable for kinetic analysis. Double-referenced sensorgrams were fitted using non-linear regression to a model describing 1:1 kinetics, including a term for mass transport limitation. The Rₘₐₓ value was fitted locally to account for slight deviations in the level of sCD131 captured, with association rate (kₐ), dissociation rate (kd) and equilibrium dissociation constant (KD) fitted globally.
(§2) Mapping of the shCD131 epitope was performed by measurement of the affinity of Fabs for various alanine point mutants of shCD131 essentially as described above, with the following exceptions. Each shCD131 mutant was captured for 120 seconds at concentrations between 1 and 5 μg/ml. For kinetic analysis, purified recombinant Fabs were injected for 2 minutes, and dissociation was monitored for a further 2 minutes. […] Fab concentrations ranged from 16 μM to 3.9 nM in two-fold dilutions. The assays were conducted at 25° C. All sensorgrams were reference subtracted as described above. For determination of steady-state affinity (KD only), the response at the end of the binding phase was used to fit the data to a single-site binding model. Kinetic parameters were determined as described above.

[3] = biological target: T2, shCD131 T40A (human, UniProt P32927 17-438); test: SPR, steady state, Fab over captured mutant
T2 construct: C-terminal 6xHis
T2 sequence: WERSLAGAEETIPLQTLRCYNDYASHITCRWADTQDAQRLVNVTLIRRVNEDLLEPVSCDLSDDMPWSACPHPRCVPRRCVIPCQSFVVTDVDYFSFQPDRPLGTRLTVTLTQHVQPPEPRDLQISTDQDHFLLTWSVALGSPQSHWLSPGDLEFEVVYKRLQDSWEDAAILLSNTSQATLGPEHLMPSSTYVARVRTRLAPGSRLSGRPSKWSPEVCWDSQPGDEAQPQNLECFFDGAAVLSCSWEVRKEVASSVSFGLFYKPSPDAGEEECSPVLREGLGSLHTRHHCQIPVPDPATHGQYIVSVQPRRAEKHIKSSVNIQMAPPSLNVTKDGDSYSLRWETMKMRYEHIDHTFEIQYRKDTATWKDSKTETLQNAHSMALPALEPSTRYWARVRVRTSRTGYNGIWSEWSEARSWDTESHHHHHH
Procedure: as §1, §2

[4] = biological target: T3, shCD131 H367A (human, UniProt P32927 17-438); test: SPR, steady state, Fab over captured mutant
T3 construct: C-terminal 6xHis
T3 sequence: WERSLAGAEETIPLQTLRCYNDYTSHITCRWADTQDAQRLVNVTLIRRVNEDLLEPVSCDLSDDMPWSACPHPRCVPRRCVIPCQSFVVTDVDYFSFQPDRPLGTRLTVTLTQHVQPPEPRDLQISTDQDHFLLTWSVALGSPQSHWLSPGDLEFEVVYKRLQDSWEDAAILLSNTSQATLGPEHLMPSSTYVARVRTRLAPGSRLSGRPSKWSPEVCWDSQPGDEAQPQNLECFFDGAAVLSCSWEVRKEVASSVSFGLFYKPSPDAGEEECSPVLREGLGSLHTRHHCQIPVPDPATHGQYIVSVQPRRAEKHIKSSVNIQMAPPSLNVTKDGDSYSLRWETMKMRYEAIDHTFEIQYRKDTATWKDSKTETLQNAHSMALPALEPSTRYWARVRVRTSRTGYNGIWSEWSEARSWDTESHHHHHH
Procedure: as §1, §2

[5] = biological target: T4, shCD131 S102A (human, UniProt P32927 17-438); test: SPR, steady state, Fab over captured mutant
T4 construct: C-terminal 6xHis
T4 sequence: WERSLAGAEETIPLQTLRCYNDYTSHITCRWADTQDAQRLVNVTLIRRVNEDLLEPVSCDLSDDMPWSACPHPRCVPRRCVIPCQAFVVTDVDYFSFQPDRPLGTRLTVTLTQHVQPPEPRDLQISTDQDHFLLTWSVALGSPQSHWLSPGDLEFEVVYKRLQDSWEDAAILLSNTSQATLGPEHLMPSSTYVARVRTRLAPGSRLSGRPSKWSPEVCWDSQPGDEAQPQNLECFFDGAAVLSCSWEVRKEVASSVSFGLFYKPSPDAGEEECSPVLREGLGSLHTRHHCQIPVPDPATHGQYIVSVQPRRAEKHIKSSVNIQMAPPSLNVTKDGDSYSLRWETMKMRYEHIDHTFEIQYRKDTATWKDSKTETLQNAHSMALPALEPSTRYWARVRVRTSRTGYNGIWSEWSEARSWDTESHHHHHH
Procedure: as §1, §2

fold reduction of binding relative to WT shCD131 [1]: 3 to 7 fold
Kd [2]: 235 nM
Kd [3]: 236 nM
Kd [4]: 10300 nM and 10800 nM
Kd [5]: 324 nM
B1: 9A2 Fab (Fab, V domains shown)
VH: EVQLLESGGGLVQPGGSLRLSCAASGFTFSHYHMLWVRQAPGKGLEWVSSIRSSGGFTYYADSVKGRFTISRDNSKNTLYLQMNSLRAEDTAVYYCARFYDSFFDIWGQGTMVTVSS
VL: DIQMTQSPSSVSASVGDRVTITCRASQGISSWLAWYQQKPGKAPKLLIYAASSLQSGVPSRFSGSGSGTDFTLTISSLQPEDFATYYCQQANSFPITFGQGTRLEIKR
notes: also called recombinant Fab of 9A2
